Results taken from article PMC3513267 (Journal of molecular biology, 2011).
Read-outs that look alike come from different tables or passages of the source.

Experiments:
PKA-C = PKA-C (Mus musculus, UniProt P05132); experiment: PKA-C catalyzed steady-state phosphorylation assay; type: biochemical; conditions: for catalytic efficiency kcat/Km: spectrophotometric, 340 nm, 299 K, 50 mM MOPS pH 7.0, 20 mM DTT, 10 mM MgCl2, 5.0 mM ATP, 1.0 mM PEP, 0.2 mM NADH, triplicate
[1] = cited from earlier work
NMR secondary structure = conditions: in the presence of DPC micelles

Substance	phosphorylation efficiency (in words) (PKA-C; PLN in DPC micelles, most helical construct studied)	catalytic efficiency kcat/Km (PKA-C; full-length PLN in DPC micelles)	R-state population ([1]; in DPC micelles)	catalytic efficiency kcat/Km (PKA-C; absence of membranes)	secondary structure (CSI and SSP scores) (NMR secondary structure)	R-state population ([1]; free in solution)
PLN: synthetic and recombinant versions of full-length PLN with no lipidation; membrane protein that inhibits SERCA	the phosphorylation efficiency is drastically lower	~ 0.06 µM^−1s^−1	~ 4%			
PLN1–20: peptide corresponding to the cytoplasmic domain Ia of phospholamban (MEKVQYLTRSAIRRASTIEM; UniProt P26678 1-20, looked up, fragment)				~ 0.6 µM^−1s^−1	the peptide forms a stable α-helix	100%
